Laboratory results taken from patent US20180327499A1 (published 2018).
Each block holds one binder with its values, some of them ahead of it.

Legend:
bsfAb ET2F9 = assay: flow cytometry
bsfAb ET1F8 = assay: flow cytometry
sdAb c7b = assay: ELISA; table printed under the ELISA plot; legend values suggest HEK-293 cells
[1] = biological target: T1, recombinant human NKG2D/Fc chimera (R&D Systems) (human, UniProt P26718 78-216); assay: as above
T1 chain: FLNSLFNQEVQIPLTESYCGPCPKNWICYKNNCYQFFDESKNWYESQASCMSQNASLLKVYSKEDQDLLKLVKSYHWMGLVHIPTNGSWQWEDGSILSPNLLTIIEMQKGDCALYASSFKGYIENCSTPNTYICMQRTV

[2] = biological target: T2, NKG2D on HEK-293T cells co-transfected with NKG2D and DAP10 (UniProt P26718 1-216); assay: flow cytometry; table printed under the HEK-293 plot; legend values suggest ELISA
T2 chain: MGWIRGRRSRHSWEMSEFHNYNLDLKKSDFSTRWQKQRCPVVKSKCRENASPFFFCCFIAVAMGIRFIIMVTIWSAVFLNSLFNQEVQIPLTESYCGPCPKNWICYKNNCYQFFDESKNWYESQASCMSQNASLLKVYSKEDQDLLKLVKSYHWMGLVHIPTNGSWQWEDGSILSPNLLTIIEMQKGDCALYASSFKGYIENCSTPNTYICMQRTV

Kd (bsfAb ET2F9): 33.2 nM
Kd (bsfAb ET1F8): 32.5 nM
B1: transfected HEK-293 (receptor)
chain: MGWIRGRRSRHSWEMSEFHNYNLDLKKSDFSTRWQKQRCPVVKSKCRENASPFFFCCFIAVAMGIRFIIMVTIWSAVFLNSLFNQEVQIPLTESYCGPCPKNWICYKNNCYQFFDESKNWYESQASCMSQNASLLKVYSKEDQDLLKLVKSYHWMGLVHIPTNGSWQWEDGSILSPNLLTIIEMQKGDCALYASSFKGYIENCSTPNTYICMQRTV

Kd (sdAb c7b): 6.07 nM
B2: Fc-NKG2D (Fc fusion)
chain: FLNSLFNQEVQIPLTESYCGPCPKNWICYKNNCYQFFDESKNWYESQASCMSQNASLLKVYSKEDQDLLKLVKSYHWMGLVHIPTNGSWQWEDGSILSPNLLTIIEMQKGDCALYASSFKGYIENCSTPNTYICMQRTV

Kd [1]: 1710 nM
Kd [2]: 41.1 nM
B3: sdAb ET2F9 (VHH)
VHH: QVQLVQSGGGLVQPGGSLRLSCAASGFTFDDYAMSWVRQAPGKGLEWVSAISWSGRTTYYAESMKGRFTTSRDNAKNTLYLQMNSLKPEDTALYYCARGDVAIRGNLDAWGQGTQVTVSS
